Measurements reported in publication PMC3931819.

Key:
[1] = target: 6X(His)-tagged P-domain of the VP1 capsid protein of norovirus Norwalk strain (GI.1 genotype), with the CNGRC cysteine-rich domain (Norwalk virus (GI.1 genotype)); test: cross-linking; 5 ug protein in HEPES 20 mM pH 7, NaCl 100 mM, MgCl2 10 mM with 0%, 0.5% or 1% glutaraldehyde, 5 min at 37°C; samples with or without boiling resolved on 10% SDS-PAGE
[2] = target: 6X(His)-tagged P-domain of the VP1 capsid protein of norovirus VA387 (GII.4 genotype), with the cysteine-rich peptide … (norovirus VA387 (GII.4 genotype)); test: as above

Substance | stoichiometry N [1] | stoichiometry N [2]
6X(His)-tagged P-domain of the VP1 capsid protein of norovirus Norwalk strain (GI.1 genotype), with the CNGRC cysteine-rich domain (domain or fragment) | > 2 | –
6X(His)-tagged P-domain of the VP1 capsid protein of norovirus VA387 (GII.4 genotype), with the cysteine-rich peptide … (domain or fragment) | – | > 2
